From article PMC4944837 (Molecular cell, 2007)
Read-outs that look alike come from different tables or passages of the source.

B1: Rb 40-355 ∆Ex5 (domain or fragment, human, UniProt P06400 40-355, looked up)
chain: EDLPLVRLEFEETEEPDFTALCQKLKIPDHVRERAWLTWEKVSSVDGVLGGYIQKKKELWGICIFIAAVDLDEMSFTFTELQKNIEISVHKFFNLLKEIDTSTKVDNAMSRLLKKYDVLFALFSKLERSTEINSALVLKVSWITFLLAKGEVLQMEDDLVISFQLMLCVLDYFIKLSPPMLLKEPYKTAVIPINGSPRTPRRGQNRSARIAKQLENDTRIIEVLCKEHECNIDEVKNVYFKNFIPFMNSLGLVTSNGLPEVENLSKRYEEIYLKNKDLDARLFLDHDKTLQTDSIDSFETQR
B2: RbN (aa 40-355), Rb N-terminal domain (domain or fragment, human, UniProt P06400 40-355, looked up)
chain: EDLPLVRLEFEETEEPDFTALCQKLKIPDHVRERAWLTWEKVSSVDGVLGGYIQKKKELWGICIFIAAVDLDEMSFTFTELQKNIEISVHKFFNLLKEIDTSTKVDNAMSRLLKKYDVLFALFSKLERTCELIYLTQPSSSISTEINSALVLKVSWITFLLAKGEVLQMEDDLVISFQLMLCVLDYFIKLSPPMLLKEPYKTAVIPINGSPRTPRRGQNRSARIAKQLENDTRIIEVLCKEHECNIDEVKNVYFKNFIPFMNSLGLVTSNGLPEVENLSKRYEEIYLKNKDLDARLFLDHDKTLQTDSIDSFETQR
B3: EID-1 LxCxE peptide (aa 172-187, LxCxE) (peptide, UniProt Q9Y6B2 172-187, looked up)
peptide: NRLTEELGCDEIIDRE

Columns and labels:
Assay in all cases: pull-down
[1] = target: T1, GST-Rb pocket (aa 379-792) (human, UniProt P06400 379-792)
T1 sequence (looked up): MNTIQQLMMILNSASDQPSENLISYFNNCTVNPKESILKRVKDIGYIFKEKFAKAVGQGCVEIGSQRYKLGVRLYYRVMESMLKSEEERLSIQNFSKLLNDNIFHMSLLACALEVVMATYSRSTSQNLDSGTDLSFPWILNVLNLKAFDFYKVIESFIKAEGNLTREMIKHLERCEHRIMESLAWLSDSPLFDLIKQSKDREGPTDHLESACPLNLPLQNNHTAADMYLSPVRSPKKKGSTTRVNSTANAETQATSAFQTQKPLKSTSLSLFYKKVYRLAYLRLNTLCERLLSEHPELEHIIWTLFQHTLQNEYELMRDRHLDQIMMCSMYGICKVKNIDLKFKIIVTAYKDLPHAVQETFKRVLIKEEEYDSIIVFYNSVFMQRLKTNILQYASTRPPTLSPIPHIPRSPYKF

[2] = target: T2, GST-Rb∆N (aa 379-928) (human, UniProt P06400 379-928)
T2 sequence (looked up): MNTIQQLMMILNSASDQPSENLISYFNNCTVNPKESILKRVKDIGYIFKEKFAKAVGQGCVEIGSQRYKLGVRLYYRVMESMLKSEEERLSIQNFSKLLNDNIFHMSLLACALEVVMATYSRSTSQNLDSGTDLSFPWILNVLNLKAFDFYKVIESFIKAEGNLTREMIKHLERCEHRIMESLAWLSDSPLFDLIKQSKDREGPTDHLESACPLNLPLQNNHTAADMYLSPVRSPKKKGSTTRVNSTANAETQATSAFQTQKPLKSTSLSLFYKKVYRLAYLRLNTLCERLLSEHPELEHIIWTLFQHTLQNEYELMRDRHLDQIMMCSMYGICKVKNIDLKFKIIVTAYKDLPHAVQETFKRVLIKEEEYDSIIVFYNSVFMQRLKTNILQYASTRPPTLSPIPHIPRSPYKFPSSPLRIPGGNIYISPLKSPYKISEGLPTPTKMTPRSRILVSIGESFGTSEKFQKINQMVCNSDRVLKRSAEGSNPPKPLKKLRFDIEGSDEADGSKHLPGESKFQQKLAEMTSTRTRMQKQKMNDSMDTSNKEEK

[3] = target: T1, GST-Rb pocket (aa 379-792); remark: listed apart in the source

Row | binding result [1] | binding result [2] | binding result [3] | Binder
1 | binds |  |  | B1
2 | binds | binds |  | B2
3 |  |  | binds | B3
